{"source": "patent US20240425848", "molecular_target": "histone H3 trimethylated at lysine 9 (H3K9me3) in native chromatin of Caki-1 cells, P68431", "data": [{"protein": "Tn5 (protein) MITSALHRAADWAKSVFSSAALGDPRRTARLVNVAAQLAKYSGKSITISSEGSKAMQEGAYRFIRNPNVSAEAIRKAGAMQTVKLAQEFPELLAIEDTTSLSYRHQVAEELGKLGSIQDKSRGWWVHSVLLLEATTFRTVGLLHQEWWMRPDDPADADEKESGKWLAAAATSRLRMGSMMSNVIAVCDREADIHAYLQDKLAHNERFVVRSKHPRKDVESGLYLYDHLKNQPELGGYQISIPQKGVVDKRGKRKNRPARKASLSLRSGRITLKQGNITLNAVLAEEINPPKGETPLKWLLLTSEPVESLAQALRVIDIYTHRWRIEEFHKAWKTGAGAERQRMEEPDNLERMVSILSFVAVRLLQLRESFTPPQALRAQGLLKEAEHVESQSAETVLTPDECQLLGYLDKGKRKRKEKAGSLQWAYMAIARLGGFMDSKRTGIASWGALWEGWEALQSKLDGFLAAKDLMAQGIKI", "values": [{"measurement": "Ec: global enrichment of the ATAC-seq tagmentation signal over H3K9me3-marked regions, log2(ratio) over genomic Input, Caki-1; subscript printed as 0, first E line of the box", "result": "E0= -5.07"}, {"measurement": "Ec: global enrichment of the ATAC-seq tagmentation signal over H3K9me3-marked regions, log2(ratio) over genomic Input, Caki-1 [Continued) e]", "result": "Ec= -5.07"}, {"measurement": "Mc: modal enrichment of the ATAC-seq tagmentation signal over H3K9me3-marked regions, log2(ratio) over genomic Input, Caki-1; subscript printed as 0, first M line of the box, agrees with the mode of t", "result": "M0= -2.19"}, {"measurement": "Mc: modal enrichment of the ATAC-seq tagmentation signal over H3K9me3-marked regions, log2(ratio) over genomic Input, Caki-1 [Continued) e]", "result": "Mc= -2.19"}, {"measurement": "stated: no tagmentation signal over H3K9me3 ChIP-seq domains (ATAC-seq on permeabilized Caki-1 nuclei)", "result": "Tn5 track (scale 0-140.7): near zero over the H3K9me3 domains at about 42.4-43.4 and 43.8-44.6 Mbp of Chr. 19; peaks only where the H3K4me3 track has peaks"}, {"measurement": "stated: no tagmentation signal over H3K9me3 ChIP-seq domains (ATAC-seq, Caki-1)", "result": "Tn5 track (scale 0-50): clusters of sharp peaks at the positions of the H3K4me3 peaks; near zero at about 59-62 Mbp of Chr.12, where the H3K9me3 and TnH tracks are raised"}, {"measurement": "stated: no tagmentation signal over H3K9me3 ChIP-seq domains (bulk ATAC-seq with Tn5 alone and scGET-seq pseudo-bulk, Caki-1) [Continued) g]", "result": "tn5 and tn5 pseudobulk tracks (scale 0-50 each): flat near 0 at about 33.5-34.7 Mbp and near 0 inside the H3K9me3 domains at about 36.6-37.4 and 38.2-38.9 Mbp of chr1; sharp peaks at the positions of the H3K4me3 peaks"}]}]}
